Assay results from patent publication US20240376151A1, “STAPLED PEPTIDES AND METHODS THEREOF” (FOG PHARMACEUTICALS, INC., priority 2022, published 2024).
Numbered stars: 1 amine (or outer) side, 2 acyl side, 3 side chain; on linkers, the order of the positions; unused ones are H or OH. Bridge positions count the residues as written; N and C are the ends. Ends that are not written are not given here. Phenylene(1,4-NHCOCH2)2 = O=C(C[*:1])Nc1ccc(NC(=O)C[*:2])cc1

Target: T1, WWP2^HECT (Homo sapiens, UniProt O00308)
T1 construct: GST-TEV (N, cleaved yes); made in house; host or cells: Escherichia coli BL21 (DE3)
T1 sequence (O00308 492-865): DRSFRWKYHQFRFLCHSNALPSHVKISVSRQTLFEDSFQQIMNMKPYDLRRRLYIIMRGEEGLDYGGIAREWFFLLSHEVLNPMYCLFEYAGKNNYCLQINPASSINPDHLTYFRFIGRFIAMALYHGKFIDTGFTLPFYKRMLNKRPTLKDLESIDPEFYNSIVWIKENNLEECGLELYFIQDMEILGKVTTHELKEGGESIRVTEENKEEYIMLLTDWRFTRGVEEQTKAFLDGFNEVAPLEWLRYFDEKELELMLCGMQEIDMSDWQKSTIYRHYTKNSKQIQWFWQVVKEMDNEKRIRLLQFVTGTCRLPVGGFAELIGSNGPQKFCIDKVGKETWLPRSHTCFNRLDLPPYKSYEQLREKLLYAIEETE
Experiment: Naive Library Presenter Screening (phage, NGS), WWP2^HECT
Type: binding
Settings: for interaction data at Target Concentration 10: WWP2 target concentration 10 nM; for interaction data at Target Concentration 30: WWP2 target concentration 30 nM; for interaction data at Target Concentration 100: WWP2 target concentration 100 nM; for interaction data at Target Concentration 300: WWP2 target concentration 300 nM; for interaction data at Target Concentration 1000: WWP2 target concentration 1000 nM

Row | Sequence | interaction data at Target Concentration 10 | interaction data at Target Concentration 30 | interaction data at Target Concentration 100 | interaction data at Target Concentration 300 | interaction data at Target Concentration 1000 (first column) | interaction data at Target Concentration 1000 (second column)
1 | DPAQDTCRAAADTCAFF (DPAQDTCRAAADTCAFF-NH2; linker 7-14 via Phenylene(1,4-NHCOCH2)2; N-terminus assumed; SMILES C[C@@H]1NC(=O)[C@H](C)NC(=O)[C@H](CCCNC(=N)N)NC(=O)[C@@H](NC(=O)[C@@H](NC(=O)[C@H](CC(=O)O)NC(=O)[C@H](CCC(N)=O)NC(=O)[C@H](C)NC(=O)[C@@H]2CCCN2C(=O)[C@@H](N)CC(=O)O)[C@@H](C)O)CSCC(=O)Nc2ccc(cc2)NC(=O)CSC[C@@H](C(=O)N[C@@H](C)C(=O)N[C@@H](Cc2ccccc2)C(=O)N[C@@H](Cc2ccccc2)C(N)=O)NC(=O)[C@H]([C@@H](C)O)NC(=O)[C@H](CC(=O)O)NC(=O)[C@H](C)NC1=O) | 8 | 159 | 267 | 241 | 232 | 373
2 | DPAMWSCRYAAWECWVL (DPAMWSCRYAAWECWVL-NH2; linker 7-14 via Phenylene(1,4-NHCOCH2)2; N-terminus assumed; SMILES CSCC[C@H](NC(=O)[C@H](C)NC(=O)[C@@H]1CCCN1C(=O)[C@@H](N)CC(=O)O)C(=O)N[C@@H](Cc1c[nH]c2ccccc12)C(=O)N[C@@H](CO)C(=O)N[C@H]1CSCC(=O)Nc2ccc(cc2)NC(=O)CSC[C@@H](C(=O)N[C@@H](Cc2c[nH]c3ccccc23)C(=O)N[C@H](C(=O)N[C@@H](CC(C)C)C(N)=O)C(C)C)NC(=O)[C@H](CCC(=O)O)NC(=O)[C@H](Cc2c[nH]c3ccccc23)NC(=O)[C@H](C)NC(=O)[C@H](C)NC(=O)[C@H](Cc2ccc(O)cc2)NC(=O)[C@H](CCCNC(=N)N)NC1=O) | 0 | 0 | 0 | 8 | 7 | 28
3 | DPARVNCHAAADTCFFF (linker 7-14 via Phenylene(1,4-NHCOCH2)2) | 6 | 83 | 76 | 103 | – | 123
4 | DPATWDCRNAAWLCLLN (linker 7-14 via Phenylene(1,4-NHCOCH2)2 (inferred); not fully specified (C-terminus)) | 0 | 1 | 4 | 8 | 12 | 12
5 | DPAYHHCLAAADLCSFF | 59 | 97 | 107 | 147 | 101 | 141
6 | DPATWDCIWAAERCWRY (linker 7-14 via Phenylene(1,4-NHCOCH2)2 (inferred); not fully specified (C-terminus)) | 0 | 0 | 1 | 4 | 9 | 13
7 | DPARVDCLVAADMCHMF (DPARVDCLVAADMCHMF-NH2; linker 7-14 via Phenylene(1,4-NHCOCH2)2; N-terminus assumed; SMILES CSCC[C@H](NC(=O)[C@H](Cc1c[nH]cn1)NC(=O)[C@@H]1CSCC(=O)Nc2ccc(cc2)NC(=O)CSC[C@H](NC(=O)[C@H](CC(=O)O)NC(=O)[C@@H](NC(=O)[C@H](CCCNC(=N)N)NC(=O)[C@H](C)NC(=O)[C@@H]2CCCN2C(=O)[C@@H](N)CC(=O)O)C(C)C)C(=O)N[C@@H](CC(C)C)C(=O)N[C@@H](C(C)C)C(=O)N[C@@H](C)C(=O)N[C@@H](C)C(=O)N[C@@H](CC(=O)O)C(=O)N[C@@H](CCSC)C(=O)N1)C(=O)N[C@@H](Cc1ccccc1)C(N)=O) | 165 | 532 | 522 | 555 | 466 | 573
8 | DPAVWECRWAAFQCWLD (linker 7-14 via Phenylene(1,4-NHCOCH2)2 (inferred); not fully specified (C-terminus)) | 0 | 0 | 88 | 86 | 97 | 107
9 | DPAVWDCRYAAWDCYTN (linker 7-14 via Phenylene(1,4-NHCOCH2)2 (inferred); not fully specified (C-terminus)) | 0 | 0 | 0 | 28 | 33 | 15
10 | DPALIHCRAAADTCAFW (linker 7-14 via Phenylene(1,4-NHCOCH2)2; not fully specified (C-terminus)) | 87 | 318 | 384 | 608 | 419 | 565
11 | DPAIHSCYAAAETCQFF (linker 7-14 via Phenylene(1,4-NHCOCH2)2 (inferred)) | 43 | 87 | 89 | 139 | 127 | 194
